Assay [1] addresses rabbit muscle G-actin (actin monomers; ATP-G-actin or ADP-G-actin) (rabbit) (UniProt P68135). Kind of assay: shift of the apparent critical concentration of pyrene-actin.
For assay [2] the target is unchanged. The description is as above. This is another data set of the same source.

Several values for one entry are separate records, joined by “and”; a condition that tells them apart may be missing. Equal entries are not always repeated. Where two headings read alike, the source gives them in different places.

Consider “MBP-CAS-2 (full-length CAS-2, cyclase-associated protein-2, fused to maltose-binding protein) (natural protein)”, for which, in assay [1], the Kd turned out to be 830 nM.
For the substance “MBP-CAS-2C (C-terminal half of CAS-2, residues 208-457, fused to maltose-binding protein) (domain or fragment)”, the Kd was 1700 nM and 2900 nM in assay [1]; 1000 nM and 950 nM in assay [2].
For “MBP-CAS-2CΔWH2 (C-terminal half of CAS-2 lacking WH2, residues 275-457, fused to maltose-binding protein) (domain or fragment)”, the Kd in assay [1] was 1700 nM and 1200 nM; in assay [2], 3600 nM and 2900 nM.
Turning to “MBP-CAS-2N (N-terminal half of CAS-2, residues 1-207, fused to maltose-binding protein) (domain or fragment)”, the Kd in assay [1] was 2900 nM and 830 nM.

Values taken from article PMC4086254.
